Test results published in US20070093646A1 (BIOTIE THERAPIES, published 2007).

Molecular target: the molecule itself
Assay: X-ray crystal structure, 3.2 A, molecular replacement; one dimer per asymmetric unit
Experimental: One crystal was mounted in a capillary and preliminary X-ray analysis was carried out in-house using a rotating-anode radiation source (Cu Kα radiation, 50 kV, 150 mA) and MAR345 image plate detector. The crystal, however, diffracted to only 8 Å resolution and the space group could not be accurately determined. All further X-ray analysis, as well as data collection, was carried out using synchrotron radiation at the beamline X11 (EMBL/DESY Hamburg, Germany) equipped with a MAR Research CCD detector. For data collection, the crystals were cryo-protected with 20% (v/v) glycerol and flash-frozen in a 100 K nitrogen stream. Diffraction data, collected from three different crystals, were processed with the program XDS. The solvent content and Matthews coefficient were calculated assuming a molecular weight of 90 kDa per monomer and using the CCP4 suite.
The structure of VAP-1 was solved by molecular replacement using the program AMORE (Navaza, 1994) of the CCP4i program suite (Collaborative Computational Project, 1994). This method confirmed that the space group of VAP-1 crystals was P6522 with one biological unit, a dimer per asymmetric unit. […]
Electron density maps were calculated with FFT of CCP4i suite and were predictable enough to trace the VAP-1 polypeptide, even though, at the beginning of building, in several fragments. […]

B1: human vascular adhesion protein-1 (VAP-1) (enzyme)
chain: MNQKTILVLLILAVITIFALVCVLLVGRGGDGGEPSQLPHCPSVSPSAQPWTHPGQSQLFADLSREELTAVMRFLTQRLGPGLVDAAQARPSDNCVFSVELQLPPKAAALAHLDRGSPPPAREALAIVFFGRQPQPNVSELVVGPLPHPSYMRDVTVERHGGPLPYHRRPVLFQEYLDIDQMIFNRELPQASGLLHHCCFYKHRGRNLVTMTTAPRGLQSGDRATWFGLYYNISGAGFFLHHVGLELLVNHKALDPARWTIQKVFYQGRYYDSLAQLEAQFEAGLVNVVLIPDNGTGGSWSLKSPVPPGPAPPLQFYPQGPRFSVQGSRVASSLWTFSFGLGAFSGPRIFDVRFQGERLVYEISLQEALAIYGGNSPAAMTTRYVDGGFGMGKYTTPLTRGVDCPYLATYVDWHFLLESQAPKTIRDAFCVFEQNQGLPLRRHHSDLYSHYFGGLAETVLVVRSMSTLLNYDYVWDTVFHPSGAIEIRFYATGYISSAFLFGATGKYGNQVSEHTLGTVHTHSAHFKVDLDVAGLENWVWAEDMVFVPMAVPWSPEHQLQRLQVTRKLLEMEEQAAFLVGSATPRYLYLASNHSNKWGHPRGYRIQMLSFAGEPLPQNSSMARGFSWERYQLAVTQRKEEEPSSSSVFNQNDPWAPTVDFSDFINNETIAGKDLVAWVTAGFLHIPHAEDIPNTVTVGNGVGFFLRPYNFFDEDPSFYSADSIYFRGDQDAGACEVNPLACLPQAAACAPDLPAFSHGGFSHN
modifications: topaquinone (Tpq471) formed by post-translational modification of an intrinsic tyrosine at 471; N-glycan attached to Asn232; one copper ion per monomer in the active site
notes: Full-length protein was crystallized; Only residues A55-A761 and B57-B761 are modelled in the structure, with a few gaps; PDB entries are printed as IPU4 (probably 1PU4) and 1US1; also called hVAP-1; HVAP-1
binding result: binds
